# Reference: publication PMC5003816
# Target: ubiquitin conjugates (MEFs)
# Assay: UBQLN2 IP and western blot quantification (primary MEFs)
# Settings: n = 3; read off a plot
substance,measurement,value
"UBQLN2 (mouse, endogenous, wild type) (from UniProt Q9QZM0) mP520T",ratio to parent,1.4
